In US20250084169A1 (published 2025):
Residue numbers refer to the chain shown, from its start. Where two headings read alike, the source gives them in different places.

Columns and labels:
[1] = target: T1, recombinant human Fc gamma RIIIb (CD16b) (human, UniProt O75015 17-200)
[2] = target: T2, recombinant human Fc gamma RIIIa (CD16a) 158F (human, UniProt P08637 17-208)
[3] = target: T3, recombinant human Fc gamma RIIIa (CD16a) 158V (human, UniProt P08637 17-208)
[4] = target: T4, cynomolgus monkey Fc gamma receptor CD16 (cynomolgus monkey, UniProt Q8SPW2 17-208)
[5] = target: T5, recombinant cynomolgus monkey CD20 (cynomolgus monkey, UniProt M4ZHZ6 1-297)
T5 sequence: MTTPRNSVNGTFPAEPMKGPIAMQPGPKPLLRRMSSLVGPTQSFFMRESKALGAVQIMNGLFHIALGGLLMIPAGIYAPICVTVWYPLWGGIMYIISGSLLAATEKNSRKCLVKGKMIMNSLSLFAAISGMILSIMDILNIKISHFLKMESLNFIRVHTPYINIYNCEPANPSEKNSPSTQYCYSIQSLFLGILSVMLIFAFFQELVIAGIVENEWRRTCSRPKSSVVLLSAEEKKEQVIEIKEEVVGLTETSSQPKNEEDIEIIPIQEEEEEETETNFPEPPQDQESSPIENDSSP

[6] = target: T6, recombinant human Fc gamma RIIa (CD32a) 131H (human, UniProt P12318 36-218)
T6 sequence (looked up): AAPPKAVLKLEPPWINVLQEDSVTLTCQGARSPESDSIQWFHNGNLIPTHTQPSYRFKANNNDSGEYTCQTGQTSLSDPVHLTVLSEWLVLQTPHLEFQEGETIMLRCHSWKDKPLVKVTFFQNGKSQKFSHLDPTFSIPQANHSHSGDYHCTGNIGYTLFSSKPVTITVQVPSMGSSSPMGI

[7] = target: T1, recombinant human Fc gamma RIIIb (CD16b); remark: listed apart in the source
[8] = target: T7, recombinant human Fc gamma RIIa (CD32a) 131R (human, UniProt P12318 36-218)
T7 sequence (looked up): T6 sequence (looked up) with H132R

[9] = target: T3, recombinant human Fc gamma RIIIa …; remark: listed apart in the source
[10] = target: T8, recombinant human Fc gamma RI (CD64) (human, UniProt P12314 16-288)
[11] = target: T9, recombinant human Fc gamma RIIb/c (CD32b/c) (human, UniProt P31994 46-217)
T9 sequence (looked up): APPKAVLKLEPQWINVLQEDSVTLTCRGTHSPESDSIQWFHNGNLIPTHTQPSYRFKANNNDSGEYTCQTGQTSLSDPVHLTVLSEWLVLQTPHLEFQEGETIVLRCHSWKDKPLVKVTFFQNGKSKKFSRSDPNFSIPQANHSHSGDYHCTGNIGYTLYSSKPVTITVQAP

[12] = target: T4, cynomolgus monkey Fc gamma receptor CD16; remark: listed apart in the source
[13] = target: T10, cynomolgus monkey CD20 on cells (cynomolgus monkey, UniProt M4ZHZ6 1-297)
T10 sequence: T5 sequence

[14] = target: T11, recombinant human full-length CD20 (human, UniProt P11836 1-297)
T11 sequence (looked up): T5 sequence with P25S, L31F, A51T, V157A, R217K, S226N, V227I, V239T

[15] = target: T7, recombinant human Fc gamma RIIa (CD32a) …; remark: listed apart in the source
[16] = target: T8, recombinant human Fc gamma RI (CD64); remark: listed apart in the source
[17] = target: T9, recombinant human Fc gamma RIIb/c …; remark: listed apart in the source
[18] = target: T6, recombinant human Fc gamma RIIa (CD32a) …; remark: listed apart in the source
[19] = target: T1, recombinant human Fc gamma RIIIb (CD16b); remark: listed apart in the source
[20] = target: T7, recombinant human Fc gamma RIIa (CD32a) …; remark: listed apart in the source
[21] = target: T2, recombinant human Fc gamma RIIIa …; remark: listed apart in the source
[22] = target: T3, recombinant human Fc gamma RIIIa …; remark: listed apart in the source
[23] = target: T8, recombinant human Fc gamma RI (CD64); remark: listed apart in the source
[24] = target: T9, recombinant human Fc gamma RIIb/c …; remark: listed apart in the source
CD20 Lipoparticles = target: T12, CD20 Lipoparticles (Homo sapiens (Human), UniProt P11836 1-297)
T12 sequence: T5 sequence with P25S, L31F, A51T, V157A, R217K, S226N, V227I, V239T

T1 sequence (O75015 17-200 limits assumed): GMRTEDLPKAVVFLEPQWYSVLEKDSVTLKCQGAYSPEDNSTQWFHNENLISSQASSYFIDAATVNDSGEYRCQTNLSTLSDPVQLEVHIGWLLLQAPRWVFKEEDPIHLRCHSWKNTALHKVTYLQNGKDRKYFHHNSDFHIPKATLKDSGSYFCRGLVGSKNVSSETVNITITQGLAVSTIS
T3 sequence (P08637 17-208 F176V limits assumed): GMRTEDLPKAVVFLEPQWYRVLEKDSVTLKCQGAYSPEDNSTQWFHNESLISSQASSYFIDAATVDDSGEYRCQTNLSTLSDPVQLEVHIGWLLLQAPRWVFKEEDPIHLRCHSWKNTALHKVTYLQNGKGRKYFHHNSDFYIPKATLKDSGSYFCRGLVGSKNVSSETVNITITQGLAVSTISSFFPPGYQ
T8 sequence (P12314 16-288 limits assumed): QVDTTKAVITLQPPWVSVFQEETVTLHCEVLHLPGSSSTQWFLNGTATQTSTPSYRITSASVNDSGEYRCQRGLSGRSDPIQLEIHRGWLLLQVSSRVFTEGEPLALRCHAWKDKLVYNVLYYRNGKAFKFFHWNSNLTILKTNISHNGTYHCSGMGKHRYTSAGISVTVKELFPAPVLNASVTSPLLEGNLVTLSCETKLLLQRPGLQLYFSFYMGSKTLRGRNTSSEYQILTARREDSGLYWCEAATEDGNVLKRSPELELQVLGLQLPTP
T2 sequence (P08637 17-208 limits assumed): as the sequence (P08637 17-208 F176V limits assumed) above, with V160F counted along it
T4 sequence (Q8SPW2 17-208 limits assumed): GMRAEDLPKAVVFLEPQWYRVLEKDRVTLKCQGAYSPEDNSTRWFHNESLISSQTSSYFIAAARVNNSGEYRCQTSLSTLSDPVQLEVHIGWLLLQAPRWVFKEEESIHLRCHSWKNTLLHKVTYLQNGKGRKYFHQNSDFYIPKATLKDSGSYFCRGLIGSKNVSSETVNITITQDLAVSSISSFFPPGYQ

B1: Rituximab (antibody)
VH: not shown
VL: QIVLSQSPAILSASPGEKVTMTCRASSSVSYIHWFQQKPGSSPKPWIYATSNLASGVPVRFSGSGSGTSYSLTISRVEAEDAATYYCQQWTSNPPTFGGGTKLEIKRTVAAPSVFIFPPSDEQLKSGTASVVCLLNNFYPREAKVQWKVDNALQSGNSQESVTEQDSKDSTYSLSSTLTLSKADYEKHKVYACEVTHQGLSSPVTKSFNRGEC
Q: With B1 as the binder, how does the Kd [1] read?
A: 4.32 µM

Q: What about the Kd [2] of the same binder?
A: 1520 nM

Q: What about the Kd [3] of the same binder?
A: 309 nM

Q: What about the Kd [4] of the same binder?
A: 425 nM

Q: What about the Kd [5] of the same binder?
A: 1.1 nM

Q: And the Kd [6]?
A: 892 nM

Q: And the Kd [7]?
A: 1530 nM

Q: What about the Kd [8] of the same binder?
A: 1250 nM

Q: And the Kd [9]?
A: 715 nM

Q: And the Kd [10]?
A: 52.8 nM

Q: What about the Kd [11] of the same binder?
A: 1520 nM

Q: What about the Kd [12] of the same binder?
A: 130 nM

Q: And the EC50 [13]?
A: 0.61 nM

Q: What about the Kd [14] of the same binder?
A: 0.46 nM

Q: And the Kd [15]?
A: 635 nM

Q: And the Kd [16]?
A: 0.0547 nM

Q: And the Kd [17]?
A: 8.88 µM

Q: What about the Kd [18] of the same binder?
A: 1740 nM

Q: And the Kd [19]?
A: 4.09 µM

Q: And the Kd [20]?
A: 2330 nM

Q: What about the Kd [21] of the same binder?
A: 1530 nM

Q: And the Kd [22]?
A: 595 nM

Q: And the Kd [23]?
A: 11.3 nM

Q: And the Kd [24]?
A: 6.68 µM

Q: And the Kd (CD20 Lipoparticles)?
A: < 1 pM
